The results in this text go back to patent US20120282280A1 (Hoffmann-La Roche, published 2012).

The target in assay [1] is DIG-BP4 (digoxygenated protein). Nature of the assay: SPR (Biacore), antibody captured by anti-human IgG, DIG-BP4 injected 0.3125-10 nM, 25 C. (In general: Surface plasmon resonance follows binding to a sensor surface in real time, without labels.)
Assay [2] concerns the target DIG-Myoglobin (mono-digoxygenated protein). Nature of the assay: SPR (Biacore), DIG-Myoglobin as analyte.
Assay [3] has the same target. Nature of the assay: SPR (Biacore), DIG-Myoglobin as analyte; lower end of the range, tied to <DIG>hu2 by Table 3a.
Assay [4] has the same target. Kind of assay: SPR (Biacore), DIG-Myoglobin as analyte, replicate.
Assay [5] deals with DIG-BP4 (digoxygenated protein). Kind of assay: SPR (Biacore), legend of FIG. 10d (Table 3 and the text print 33 pM).
The target is the same in assay [6]. Kind of assay: SPR (Biacore), antibody captured by anti-mouse IgG, DIG-BP4 injected 0.3125-10 nM, 25 C.
Assay [7] addresses DIG-Myoglobin (mono-digoxygenated protein). Kind of assay: SPR (Biacore), DIG-Myoglobin as analyte. This is another data set of the same source.

DIG-Myoglobin (mono-digoxygenated protein), sequence (P68082 2-154): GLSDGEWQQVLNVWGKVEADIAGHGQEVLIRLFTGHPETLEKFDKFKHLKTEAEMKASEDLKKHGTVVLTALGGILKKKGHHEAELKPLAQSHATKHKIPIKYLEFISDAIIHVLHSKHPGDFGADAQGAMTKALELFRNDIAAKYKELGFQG

B1: humanized <Dig> IgG (antibody, V domains shown)
VH: QVQLVESGGGLVKPGGSLRLSCAASGFTFSDYAMSWIRQAPGKGLEWVSSINIGATYIYYADSVKGRFTISRDNAKNSLYLQMNSLRAEDTAVYYCARPGSPYEYDKAYYSMAYWGQGTTVTVSS
VL: DIQMTQSPSSLSASVGDRVTITCRASQDIKNYLNWYQQKPGKAPKLLIYYSSTLLSGVPSRFSGSGSGTDFTLTISSLQPEDFATYYCQQSITLPPTFGGGTKVEIKR
notes: also called <DIG>hu2; <DIG>-hu2
In general, Kd refers to a measure of binding affinity in units of concentration. One may read the koff as the first-order rate constant of dissociation. A higher koff goes with a short-lived complex. One may read the kon as the rate constant with which the complex forms. Lower therefore signals slower complex formation. Take B1: the Kd in assay [1] was less than 0.076 nM; in assay [2], 15.8 nM; in assay [3], 15 to 25 nM; in assay [4] it was 11.8 nM. Also, the values for the koff in assay [2] and in assay [4] were 0.00982 s⁻¹ and 0.00881 s⁻¹, respectively. In addition, the kon in assay [2] is 620000 M⁻¹ s⁻¹; in assay [4], 749000 M⁻¹ s⁻¹.

B2: murine <Dig> IgG1 kappa from mouse hybridoma clone 19-11 (antibody, V domains shown)
VH: EVQLVESGGGLVKPGGSLKLSCAVSGFTFSDYAMSWIRQTPENRLEWVASINIGATYAYYPDSVKGRFTISRDNAKNTLFLQMSSLGSEDTAMYYCARPGSPYEYDKAYYSMAYWGPGTSVTVSS
VL: DVQMTQSTSSLSASLGDRVTISCRASQDIKNYLNWYQQKPGGTVKLLIYYSSTLLSGVPSRFSGRGSGTDFSLTITNLEREDIATYFCQQSITLPPTFGGGTKLEIK
notes: also called murine DIG-IgG 19-11; <DIG>M-19-11
Take B2: the equilibrium dissociation constant (Kd) stood at 33 nM in assay [5], 0.386 nM in assay [2], 0.033 nM in assay [6] and 0.295 nM in assay [4]. Further, the koff in assay [2] stood at 0.000676 s⁻¹; in assay [4], 0.000675 s⁻¹. The kon in assay [2] is 1.75e+06 M⁻¹ s⁻¹; in assay [4], 2.28e+06 M⁻¹ s⁻¹. Moreover, the “fold better affinity than <DIG>-hu2 and the disulfide-stabilized <DIG> scFv” value in assay [7] was approximately 100 fold.
